# From the supplement of paper PMC7877785
# ± gives the uncertainty stated by the source.
# Assay: self-splicing fitness, log relative to wild type (ln ratio); higher = more splicing; Tetrahymena group I intron in knt gene, E. coli kanamycin selection, DiMSum; sequences stand for … in CUCUCU…GGAGGGAAAAGUUAUCAGGCAUGCACCUGGUAGCUAGUCUUUAAACCAAUAGAUUGCAUCGGUUUAAAAGGCAAGACCGUCAAAUUGCGGGAAAGGGGUCAACAGCCGUUCAGUACCAAGUCUCAGGGGAAACUUUGAGAUGGCCUUGCAAAGGGUAUGGUAAUAAGCUGACGGACAUGGUCCUAACCACGCAGCCAAGUCCUAAGUCAACAGAUCUUCUGUUGAUAUGGAUGCAGUUCACAGACUAAAUGUCGGUCGGGGAAGAUGUAUUCUUCUCAUAAGAUAUAGUCGGACCUCUCCUUAAUGGGAGCUAGCGGAUGAAGUGAUGCAACACUGGAGCCGCUGGGAACUAAUUUGUAUGCGAAAGUAUAUUGAUUAGUUUUGGAGUACUCGUGGUCG
# Method in brief: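 A randomised library covering all eight P1ex-region intron nucleotides was built with the intron in the knt kanamycin-resistance gene on pET-22b(+) and held in E. coli BL21(DE3). Cells were grown overnight at 37°C or 30°C on LB agar, with or without 25 μg/mL kanamycin, plus 100 μg/mL carbenicillin, 50 μM IPTG and 0.2% rhamnose, and pooled colonies were amplicon-sequenced on an Illumina HiSeq 2500. DiMSum fitness is the error-weighted combination of wild-type-normalised replicate fold changes, kanamycin versus none.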
Sequence,self-splicing fitness (ln) (30 °C),self-splicing fitness (ln) (37 °C)
AUCCAGCAAUAUUACGUUAU,-1.36 ± 0.072,-0.198 ± 0.089
CUACAGCAAUAUUACGCUUC,–,-2.88 ± 0.44
AAAAAGCAAUAUUACGACGA,0.0233 ± 0.084,-0.502 ± 0.1
CAUCAGCAAUAUUACGUCGA,-3 ± 0.21,-2.66 ± 0.24
UACUAGCAAUAUUACGCGUU,-2.33 ± 0.11,-0.827 ± 0.1
CUUUAGCAAUAUUACGACAC,-3.75 ± 0.3,-2.54 ± 0.27
GAAGAGCAAUAUUACGCUCG,-2.32 ± 0.21,-1.37 ± 0.21
UCGCAGCAAUAUUACGCAGA,-3.72 ± 0.29,-0.987 ± 0.12
ACAAAGCAAUAUUACGGGAG,-1.72 ± 0.1,-1.08 ± 0.12
GUUCAGCAAUAUUACGACAG,-3.33 ± 0.35,-1.76 ± 0.42
CAGUAGCAAUAUUACGCAAU,-1.7 ± 0.39,–
UUGCAGCAAUAUUACGUCCA,-0.493 ± 0.1,0.00855 ± 0.088
UACCAGCAAUAUUACGCCCU,-0.895 ± 0.12,0.138 ± 0.13
CAUAAGCAAUAUUACGUAUC,-2.78 ± 0.2,-2.72 ± 0.25
GCGCAGCAAUAUUACGUACC,-1.63 ± 0.11,-0.655 ± 0.13
CUAGAGCAAUAUUACGUGGU,-4.21 ± 0.24,-3.52 ± 0.33
AACGAGCAAUAUUACGUUUG,-3.6 ± 0.2,-2.45 ± 0.28
GCUCAGCAAUAUUACGAGGA,-0.479 ± 0.12,-0.741 ± 0.12
GACCAGCAAUAUUACGCUUA,-0.722 ± 0.053,0.0868 ± 0.064
ACGCAGCAAUAUUACGACUA,-1.15 ± 0.072,-0.183 ± 0.064
CCGAAGCAAUAUUACGGCAU,-4.19 ± 0.31,-2.92 ± 0.23
ACUAAGCAAUAUUACGAGAA,-2.46 ± 0.28,-2.37 ± 0.26
GUGUAGCAAUAUUACGACCA,-1.47 ± 0.28,-0.121 ± 0.43
ACACAGCAAUAUUACGUAUA,-3.41 ± 0.13,-2.5 ± 0.12
UUAUAGCAAUAUUACGGGGU,-2.93 ± 0.28,-2.15 ± 0.31

Sequence,self-splicing fitness (ln) (30 °C),self-splicing fitness (ln) (37 °C)
CUAAAGCAAUAUUACGGUCG,0.0851 ± 0.065,0.151 ± 0.086
GGCCAGCAAUAUUACGGACA,-0.666 ± 0.12,-1.01 ± 0.17
GGCAAGCAAUAUUACGACUU,-0.555 ± 0.082,0.226 ± 0.083
CCAUAGCAAUAUUACGGCAG,-2.02 ± 0.14,-1.34 ± 0.17
GGUUAGCAAUAUUACGCAUG,-1.89 ± 0.17,-1.57 ± 0.14
UCCAAGCAAUAUUACGUUUC,-3.37 ± 0.2,-2.76 ± 0.26
UAGCAGCAAUAUUACGAAUU,-2.58 ± 0.18,-2.66 ± 0.24
CCGAAGCAAUAUUACGGAGC,-1.9 ± 0.33,-2.74 ± 0.44
AUUGAGCAAUAUUACGGUCU,-2.72 ± 0.15,-2.56 ± 0.25
GCCGAGCAAUAUUACGGACA,-0.642 ± 0.083,0.233 ± 0.082
UGGGAGCAAUAUUACGCGCG,-1.51 ± 0.3,-0.924 ± 0.35
ACGAAGCAAUAUUACGAGCG,-0.87 ± 0.075,-0.411 ± 0.12
CGACAGCAAUAUUACGGUCU,-0.546 ± 0.039,0.187 ± 0.056
GUGUAGCAAUAUUACGCGAG,-3.67 ± 0.32,-0.997 ± 0.17
UAAAAGCAAUAUUACGCAGU,-2.66 ± 0.16,-1.3 ± 0.13
ACUGAGCAAUAUUACGAGCG,-2.44 ± 0.14,-0.615 ± 0.13
GGUAAGCAAUAUUACGCCGU,-1.93 ± 0.11,-0.738 ± 0.13
AAUAAGCAAUAUUACGUCUU,0.0603 ± 0.06,-0.0919 ± 0.075
CGGUAGCAAUAUUACGUUGG,-1.26 ± 0.091,-0.39 ± 0.084
UCGCAGCAAUAUUACGGAUA,-2.58 ± 0.25,-2.44 ± 0.26
AGUGAGCAAUAUUACGAAUA,–,-1.17 ± 0.22
UCGGAGCAAUAUUACGGCUG,-2.33 ± 0.18,-1.5 ± 0.19
CCCCAGCAAUAUUACGCCUG,-3.37 ± 0.19,-2.97 ± 0.27
CCUAAGCAAUAUUACGUGCC,-2.84 ± 0.3,–
UGCAAGCAAUAUUACGGCUG,-2.12 ± 0.14,-1.14 ± 0.18

Sequence,self-splicing fitness (ln) (30 °C),self-splicing fitness (ln) (37 °C)
ACGAAGCAAUAUUACGGGAU,-3.47 ± 0.13,-1.8 ± 0.14
AGUGAGCAAUAUUACGUAGA,-3.84 ± 0.23,-3.38 ± 0.32
UAGGAGCAAUAUUACGAUCG,-1.65 ± 0.16,-0.888 ± 0.21
AGGGAGCAAUAUUACGUUAG,-3.02 ± 0.2,-3.66 ± 0.37
UGCAAGCAAUAUUACGAGUG,-1.42 ± 0.052,-0.498 ± 0.062
ACCUAGCAAUAUUACGCUAC,-2.93 ± 0.13,-2.02 ± 0.15
ACCUAGCAAUAUUACGUAAA,-2.13 ± 0.096,-1.47 ± 0.12
UCCUAGCAAUAUUACGUUGC,-3.64 ± 0.16,-2.74 ± 0.19
GGAAAGCAAUAUUACGACUC,0.0221 ± 0.11,-0.214 ± 0.19
ACUUAGCAAUAUUACGGACC,-0.607 ± 0.15,-0.756 ± 0.25
UAUGAGCAAUAUUACGUCCA,-2.26 ± 0.26,-2.86 ± 0.4
AUAAAGCAAUAUUACGGAGG,-3.18 ± 0.18,-1.67 ± 0.24
UCGAAGCAAUAUUACGGAGA,-2.69 ± 0.24,-2.44 ± 0.32
CCCGAGCAAUAUUACGAUGG,-3.39 ± 0.16,-1.28 ± 0.13
CGGCAGCAAUAUUACGCGCG,-2.65 ± 0.22,-1.54 ± 0.23
ACGAAGCAAUAUUACGCGCA,-0.419 ± 0.068,0.542 ± 0.1
GGGGAGCAAUAUUACGCGGC,–,-1.24 ± 0.49
AUCCAGCAAUAUUACGAGUA,-2.01 ± 0.18,-1.07 ± 0.12
CGUUAGCAAUAUUACGUUCG,-1.38 ± 0.091,-1.02 ± 0.13
UCUGAGCAAUAUUACGCAAA,-2.8 ± 0.33,-1.27 ± 0.19
GCCGAGCAAUAUUACGAUGA,-2.38 ± 0.12,-1.28 ± 0.1
AACAAGCAAUAUUACGUACC,-1.03 ± 0.083,0.125 ± 0.13
GCAUAGCAAUAUUACGUGAA,-0.877 ± 0.067,-0.528 ± 0.07
UCCAAGCAAUAUUACGUAAA,-1.12 ± 0.089,-0.00199 ± 0.11
UCAAAGCAAUAUUACGGAGU,-3.11 ± 0.13,-1.69 ± 0.14

Sequence,self-splicing fitness (ln) (30 °C),self-splicing fitness (ln) (37 °C)
AGGUAGCAAUAUUACGAUUC,-1.1 ± 0.015,-0.359 ± 0.034
GCCAAGCAAUAUUACGUAUG,-2.94 ± 0.15,-1 ± 0.13
GGGUAGCAAUAUUACGGUGC,-1.9 ± 0.085,-1.34 ± 0.092
AUGCAGCAAUAUUACGAAUU,-1.9 ± 0.1,-0.246 ± 0.12
CGGAAGCAAUAUUACGCUAA,-2.74 ± 0.17,-3.01 ± 0.29
AACGAGCAAUAUUACGAGUG,-1.64 ± 0.097,-0.602 ± 0.12
UCUCAGCAAUAUUACGCGAC,–,-2.37 ± 0.35
CAAGAGCAAUAUUACGACAG,-0.511 ± 0.08,0.045 ± 0.11
ACGAAGCAAUAUUACGUCUU,-2.32 ± 0.17,-1.91 ± 0.16
GGGGAGCAAUAUUACGUAUU,–,-3.33 ± 0.42
CUGUAGCAAUAUUACGAUGA,-1.86 ± 0.16,-1.83 ± 0.16
AAUAAGCAAUAUUACGCCUG,-0.724 ± 0.13,0.286 ± 0.17
UAAAAGCAAUAUUACGGUUC,-3.1 ± 0.17,-2.42 ± 0.2
AAGCAGCAAUAUUACGUGCU,-3.6 ± 0.15,-1.85 ± 0.11
CCCUAGCAAUAUUACGGUGC,-3.43 ± 0.12,-2.88 ± 0.17
AAUCAGCAAUAUUACGCACA,-0.245 ± 0.063,0.0601 ± 0.085
CGGUAGCAAUAUUACGCCGA,-0.997 ± 0.24,-1.5 ± 0.25
UCAAAGCAAUAUUACGAGUC,-3.79 ± 0.21,-2.26 ± 0.22
GGAUAGCAAUAUUACGCGCA,-0.345 ± 0.14,0.0709 ± 0.14
CUCUAGCAAUAUUACGGUAC,-2.88 ± 0.39,-4.12 ± 0.46
ACUUAGCAAUAUUACGAUCG,-1.4 ± 0.11,-1.23 ± 0.14
AGCUAGCAAUAUUACGUUUA,-2.69 ± 0.14,-1.46 ± 0.098
